# Test results taken from patent US20250288675A1 (published 2025).
# T1: MAGE-A1 peptide on HLA-C*07:02 (human)
# T1 peptide: VRFFFPSL
# T2: MAGE-A1 peptide on HLA-A*02:01 (human)
# T2 peptide: KVLEYVIKV
# T3: PRAME peptide on HLA-A*02:01 (human)
# T3 peptide: SLLQHLIGL
# T4: MAGE-C2 peptide on HLA-B*07:02 (human)
# T4 peptide: RAREFMELL
# T5: HPV16 E7 peptide on HLA-A*02:01 (human)
# T5 peptide: YMLDLQPET
# B1: MAGEA1-278-1479 (TCR, V domains shown)
# Valpha: EDQVTQSPEALRLQEGESSSLNCSYTVSGLRGLFWYRQDPGKGPEFLFTLYSAGEEKEKERLKATLTKKESFLHITAPKPEDSATYLCAVSYGQNFVFGPGTRLSVLP
# Vbeta: EAGVTQSPTHLIKTRGQQATLRCSPISGHTSVYWYQQALGLGLQFLLWYDEGEERNRGNFPPRFSGRQFPNYSSELNVNALELEDSALYLCASSLGQLNTEAFFGQGTRLTVV
# B2: MAGEC2 TCR 8-3 (TCR, V domains shown)
# Valpha: ILNVEQSPQSLHVQEGDSTNFTCSFPSSNFYALHWYRWETAKSPEALFVMTLNGDEKKKGRISATLNTKEGYSYLYIKGSQPEDSATYLCASGSGGATNKLIFGTGTLLAVQP
# Vbeta: GEEVAQTPKHLVRGEGQKAKLYCAPIKGHSYVFWYQQVLKNEFKFLISFQNENVFDETGMPKERFSAKCLPNSPCSLEIQATKLEDSAVYFCASSQSRSLRGTEAFFGQGTRLTVV
# B3: MAGEA1 TCR 32-41 (TCR, V domains shown)
# Valpha: TQLLEQSPQFLSIQEGENLTVYCNSSSVFSSLQWYRQEPGEGPVLLVTVVTGGEVKKLKRLTFQFGDARKDSSLHITAAQPGDTGLYLCAGDESISYGKLTFGQGTILTVHP
# Vbeta: DAGVIQSPRHEVTEMGQEVTLRCKPISGHDYLFWYRQTMMRGLELLIYFNNNVPIDDSGMPEDRFSAKMPNASFSTLKIQPSEPRDSAVYFCASSFLGWNEKLFFGSGTQLSVL
# B4: E7-11-28 (TCR, V domains shown)
# Valpha: GQQVMQIPQYQHVQEGEDFTTYCNSSTTLSNIQWYKQRPGGHPVFLIQLVKSGEVKKQKRLTFQFGEAKKNSSLHITATQTTDVGTYFCAGIGSSNTGKLIFGQGTTLQVKP
# Vbeta: EPEVTQTPSHQVTQMGQEVILRCVPISNHLYFYWYRQILGQKVEFLVSFYNNEISEKSEIFDDQFSVERPDGSNFTLKIRSTKLEDSAMYFCAITGRVSYEQYFGPGTRLTVT
# B5: PRAME-425-366 (TCR, V domains shown)
# Valpha: AQTVTQSQPEMSVQEAETVTLSCTYDTSESDYYLFWYKQPPSRQMILVIRQEAYKQQNATENRFSVNFQKAAKSFSLKISDSQLGDAAMYFCAYRKTSYDKVIFGPGTSLSVIP
# Vbeta: AAGVIQSPRHLIKEKRETATLKCYPIPRHDTVYWYQQGPGQDPQFLISFYEKMQSDKGSIPDRFSAQQFSDYHSELNMSSLELGDSALYFCASSFARLEGRDNEQFFGPGTRLTVL
# Assays:
# [1] = target: T1, MAGE-A1 peptide on HLA-C*07:02; assay: killing
# [2] = target: T2, MAGE-A1 peptide on HLA-A*02:01; assay: killing
# [3] = target: T3, PRAME peptide on HLA-A*02:01; assay: activation reporter or marker
# Source text: (§1) Reporter HEK293T cells expressing exclusively HLA-A*02:01 and expressing a granzyme B-activated infrared fluorescent protein (IFP) were further engineered to express either MAGE-A1 or PRAME. The MAGE-A1 expressing cells were GFP-labeled, and the PRAME-positive cells were labeled with both GFP and CellTrace™ Violet to enable tracking in downstream flow cytometry readouts. When a TCR-T cell recognizes a target cell, it secretes cytotoxic granules into the target cell, triggering the target cell to become fluorescent (IFP-positive). The two target cells (i.e., PRAME- or MAGE-A1 positive) were mixed at a balanced ratio and co-cultured with MAGE-A1 TCR-T cells, PRAME TCR-T cells, or a multiplex product combining the two TCR-T cells. PRAME TCR-T cells and MAGE-A1 TCR-T cells were engineered from T cells from the same donor. The TCR-T cells corresponded to pan T cells engineered by lentivirus transduction using a delivery vector employing MGTM modification and co-delivering CD8α and CD8β co-receptor as described above (such as a Table 1). Donor-matched non-engineered T cells (NTC) were also included as a control. The experiment then measured the proportion of each subset of target (GFP-positive, MAGE-A1 target; GFP/CTV-positive, PRAME target) getting recognized and targeted by TCR-T cells as measured by the proportion of GFP or GFP/CTV becoming IFP-positive. […]
# [4] = target: T4, MAGE-C2 peptide on HLA-B*07:02; assay: killing
# [5] = target: T5, HPV16 E7 peptide on HLA-A*02:01; assay: killing
# [6] = target: T3, PRAME peptide on HLA-A*02:01; assay: killing
# [7] = target: T2, MAGE-A1 peptide on HLA-A*02:01; assay: activation reporter or marker
# Source text: as §1
binder,measurement,setting,value
B1,binding result,[1],no recognition
same,binding result,[2],recognises
same,binding result,[3],no recognition
B2,binding result,[4],recognises
B3,binding result,[1],recognises
same,binding result,[2],no recognition
B4,binding result,[5],recognises
B5,binding result,[6],recognises
same,binding result,[7],no recognition
